Bridge positions count the residues as written; N and C are the ends. Ends that are not written are not given here. DVT = divinyltriazine staple linking the two cysteines
Target: HumRadA22
Test: fluorescence polarisation; competition: displacement of a fluorescently-labelled BRC4 repeat from HumRadA22; KD calculated from IC50; single titrations with three technical replicates at each point; mock (linear) samples with 500 uM TCEP
Settings: both partners purified

Question: With VNSSAFSGFCTASGKKLNVSCEALQKAVKLFSDIENIS (linker 10-21 via DVT (inferred); also: His8 tag in name not shown in chain) [GB1-SP7-His8, stapled with DVT] as the binder, how does the Kd read?
Answer: Its Kd is 149 nM.

From PMC10699557, “A recombinant approach for stapled peptide discovery yields inhibitors of the RAD51 recombinase†” (Chemical Science, 2023)
